# Columns and labels:
# [1] = biological target: insulin-like growth factor II (IGF-II), R&D Systems 292-G2-050 (UniProt P01344); assay: c-PLA, buffer; IGF-II 1.00E-08 M
# [2] = biological target: insulin-like growth factor II (IGF-II), R&D Systems 292-G2-050 (UniProt P01344); assay: c-PLA, buffer; IGF-II 1.00E-09 M
# [3] = biological target: insulin-like growth factor II (IGF-II), R&D Systems 292-G2-050 (UniProt P01344); assay: t-PLA, buffer; IGF-II 1.00E-07 M
# [4] = biological target: insulin-like growth factor II (IGF-II), R&D Systems 292-G2-050 (UniProt P01344); assay: c-PLA, buffer; IGF-II 1.00E-07 M
# [5] = biological target: insulin-like growth factor II (IGF-II), R&D Systems 292-G2-050 (UniProt P01344); assay: t-PLA, buffer; IGF-II 1.00E-08 M
# [6] = biological target: insulin-like growth factor II (IGF-II), R&D Systems 292-G2-050 (UniProt P01344); assay: t-PLA, buffer; IGF-II 1.00E-11 M
# [7] = biological target: insulin-like growth factor II (IGF-II), R&D Systems 292-G2-050 (UniProt P01344); assay: BLI (Octet RED), antibody on protein G sensors, 1:1 global fit
# [8] = biological target: insulin-like growth factor II (IGF-II), R&D Systems 292-G2-050 (UniProt P01344); assay: SPR, isoaffinity graph
# [9] = biological target: insulin-like growth factor II (IGF-II), R&D Systems 292-G2-050 (UniProt P01344); assay: c-PLA, buffer; IGF-II 1.00E-06 M
# [10] = biological target: insulin-like growth factor II (IGF-II), R&D Systems 292-G2-050 (UniProt P01344); assay: t-PLA, buffer; IGF-II 1.00E-09 M
# [11] = biological target: insulin-like growth factor II (IGF-II), R&D Systems 292-G2-050 (UniProt P01344); assay: SPR (Biacore T200), 1:1 global fit
# [12] = biological target: insulin-like growth factor II (IGF-II), R&D Systems 292-G2-050 (UniProt P01344); assay: c-PLA, buffer; IGF-II 1.00E-11 M
# [13] = biological target: insulin-like growth factor II (IGF-II), R&D Systems 292-G2-050 (UniProt P01344); assay: t-PLA, buffer; IGF-II 1.00E-10 M
# [14] = biological target: insulin-like growth factor II (IGF-II), R&D Systems 292-G2-050 (UniProt P01344); assay: c-PLA, buffer; IGF-II 1.00E-10 M
# [15] = biological target: insulin-like growth factor II (IGF-II), R&D Systems 292-G2-050 (UniProt P01344); assay: t-PLA, buffer; IGF-II 1.00E-06 M
# [16] = biological target: insulin-like growth factor II (IGF-II), R&D Systems 292-G2-050 (UniProt P01344); assay: SPR (Biacore T200), biotinylated antibody on CAP chip, 1:1 fit
# [17] = biological target: macrophage migration inhibitory factor (MIF), R&D Systems 289-MF-002 (UniProt P14174); assay: c-PLA, buffer; MIF 3.00E-07 M
# Sequence of UniProt P14174 (P14174 whole entry): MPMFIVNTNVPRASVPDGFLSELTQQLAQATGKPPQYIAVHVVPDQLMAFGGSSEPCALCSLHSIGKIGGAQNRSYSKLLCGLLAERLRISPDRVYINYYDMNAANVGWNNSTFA
# [18] = biological target: macrophage migration inhibitory factor (MIF), R&D Systems 289-MF-002 (UniProt P14174); assay: t-PLA, buffer; MIF 1.00E-08 M
# [19] = biological target: macrophage migration inhibitory factor (MIF), R&D Systems 289-MF-002 (UniProt P14174); assay: t-PLA, buffer; MIF 1.00E-10 M
# [20] = biological target: macrophage migration inhibitory factor (MIF), R&D Systems 289-MF-002 (UniProt P14174); assay: c-PLA, buffer; MIF 1.00E-11 M
# [21] = biological target: macrophage migration inhibitory factor (MIF), R&D Systems 289-MF-002 (UniProt P14174); assay: t-PLA, buffer; MIF 1.00E-07 M
# [22] = biological target: macrophage migration inhibitory factor (MIF), R&D Systems 289-MF-002 (UniProt P14174); assay: c-PLA, buffer; MIF 1.00E-07 M
# [23] = biological target: macrophage migration inhibitory factor (MIF), R&D Systems 289-MF-002 (UniProt P14174); assay: BLI (Octet RED), antibody on protein G sensors, 1:1 global fit
# [24] = biological target: macrophage migration inhibitory factor (MIF), R&D Systems 289-MF-002 (UniProt P14174); assay: SPR, isoaffinity graph
# [25] = biological target: macrophage migration inhibitory factor (MIF), R&D Systems 289-MF-002 (UniProt P14174); assay: c-PLA, buffer; MIF 1.00E-08 M
# [26] = biological target: macrophage migration inhibitory factor (MIF), R&D Systems 289-MF-002 (UniProt P14174); assay: SPR (Biacore T200), 1:1 global fit
# [27] = biological target: macrophage migration inhibitory factor (MIF), R&D Systems 289-MF-002 (UniProt P14174); assay: t-PLA, buffer; MIF 1.00E-11 M
# [28] = biological target: macrophage migration inhibitory factor (MIF), R&D Systems 289-MF-002 (UniProt P14174); assay: t-PLA, buffer; MIF 3.00E-07 M
# [29] = biological target: macrophage migration inhibitory factor (MIF), R&D Systems 289-MF-002 (UniProt P14174); assay: SPR (Biacore T200), biotinylated antibody on CAP chip, 1:1 fit
# [30] = biological target: macrophage migration inhibitory factor (MIF), R&D Systems 289-MF-002 (UniProt P14174); assay: t-PLA, buffer; MIF 1.00E-09 M
# [31] = biological target: macrophage migration inhibitory factor (MIF), R&D Systems 289-MF-002 (UniProt P14174); assay: c-PLA, buffer; MIF 1.00E-09 M
# [32] = biological target: macrophage migration inhibitory factor (MIF), R&D Systems 289-MF-002 (UniProt P14174); assay: c-PLA, buffer; MIF 1.00E-10 M
# Sequence of UniProt P01344 (P01344 25-91 limits assumed): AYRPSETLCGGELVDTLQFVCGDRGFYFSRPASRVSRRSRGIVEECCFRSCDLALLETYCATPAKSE
substance,measurement,setting,value
affinity-purified polyclonal anti-IGF-II antibody (R&D Systems AF-292-NA),Counts,[1],12200
same,SBR,[1],56
same,Counts,[2],527
same,SBR,[2],2.4
same,Counts,[3],5.89e+07
same,SBR,[3],81
same,Counts,[4],50300
same,SBR,[4],230
same,Counts,[5],1.75e+07
same,SBR,[5],24
same,Counts,[6],400000
same,SBR,[6],0.5
same,Kd,[7],1.17 nM
same,koff,[7],0.000321 s⁻¹
same,kon,[7],274000 M⁻¹ s⁻¹
same,Kd,[8],> 0.05 nM
same,Counts,[9],49700
same,SBR,[9],227
same,Counts,[10],641000
same,SBR,[10],0.9
same,Kd,[11],0.0511 nM
same,koff,[11],2.49e-05 s⁻¹
same,kon,[11],486000 M⁻¹ s⁻¹
same,Counts,[12],171
same,SBR,[12],0.8
same,Counts,[13],145000
same,SBR,[13],0.2
same,Counts,[14],215
same,SBR,[14],1
same,Counts,[15],4.77e+07
same,SBR,[15],65
same,Kd,[16],0.051 nM
same,koff,[16],2.5e-05 s⁻¹
same,kon,[16],490000 M⁻¹ s⁻¹
affinity-purified polyclonal anti-MIF antibody (R&D Systems AF-289-PB),Counts,[17],36900
same,SBR,[17],2170
same,Counts,[18],3.97e+07
same,SBR,[18],21
same,Counts,[19],1.84e+06
same,SBR,[19],1
same,Counts,[20],96.6
same,SBR,[20],5.7
same,Counts,[21],5.2e+07
same,SBR,[21],27
same,Counts,[22],39600
same,SBR,[22],2330
same,Kd,[23],1.75 nM
same,koff,[23],0.000532 s⁻¹
same,kon,[23],304000 M⁻¹ s⁻¹
same,Kd,[24],> 0.05 nM
same,Counts,[25],29800
same,SBR,[25],1750
same,Kd,[26],0.0826 nM
same,koff,[26],9.41e-05 s⁻¹
same,kon,[26],1.14e+06 M⁻¹ s⁻¹
same,Counts,[27],681000
same,SBR,[27],0.4
same,Counts,[28],4.66e+07
same,SBR,[28],24
same,Kd,[29],0.083 nM
same,koff,[29],9.4e-05 s⁻¹
same,kon,[29],1.1e+06 M⁻¹ s⁻¹
same,Counts,[30],1.43e+07
same,SBR,[30],7
same,Counts,[31],12300
same,SBR,[31],724
same,Counts,[32],1020
same,SBR,[32],60

# Reference: US20190360025A1
